The values that follow come from article PMC4615642 (RNA Biology, 2015).

For data set [1], the target named is T1, Myo4p-C (C-terminal cargo-binding region of Myo4p, amino acids 923-1471, His6 fusion) (S. cerevisiae, UniProt P32492 923-1471).
T1 sequence (looked up): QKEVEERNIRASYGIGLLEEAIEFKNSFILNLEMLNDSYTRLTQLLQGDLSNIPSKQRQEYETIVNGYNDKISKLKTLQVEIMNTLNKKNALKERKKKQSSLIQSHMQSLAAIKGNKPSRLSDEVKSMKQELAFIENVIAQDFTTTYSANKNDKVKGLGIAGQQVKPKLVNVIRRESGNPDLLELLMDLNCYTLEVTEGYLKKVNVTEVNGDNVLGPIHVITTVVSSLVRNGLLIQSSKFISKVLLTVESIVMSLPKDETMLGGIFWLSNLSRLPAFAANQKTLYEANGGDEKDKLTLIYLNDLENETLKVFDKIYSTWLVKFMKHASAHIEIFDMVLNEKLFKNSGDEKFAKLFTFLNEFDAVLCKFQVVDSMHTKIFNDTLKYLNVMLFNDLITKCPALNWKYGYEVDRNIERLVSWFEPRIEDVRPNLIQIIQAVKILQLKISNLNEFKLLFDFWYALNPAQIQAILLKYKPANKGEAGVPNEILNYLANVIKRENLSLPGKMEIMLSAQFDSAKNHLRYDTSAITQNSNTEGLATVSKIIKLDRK
In words: SEC-MALS.

The data set “SEC-MALS” concerns the molecule itself. Put plainly: SEC-MALS. On the technique in general: SEC sorts molecules by how far they enter the pores of the column.

B1: She3p-His6 (full-length She3p) (natural protein, S. cerevisiae, UniProt P38272 1-425, looked up)
chain: MSDQDNTQTSSSKLAPHHNIFMANLESSPTKDRNTSSQNASSSRVIESLHDQIDMLTKTNLQLTTQSQNLLSKLELAQSKESKLLENLNLLKNENENLNSIFERKNKKLKELEKDYSELSNRYNEQKEKMDQLSKLAKNSSAIEQSCSEKLQNMEVNYNSLLESQNLYRDHYSDEISKLNEKIGLLELELSNQNLNYGSDTSSNSDIELNLNKFNDSVKDLKSLETEKDSKLSKIITHSLDELNLQSWLNLYQTNENLISTFAEKMDLKDVLKRNDEKISNKGAVVQTLKKNVQTQVESNNADALSSNNAQDMLPIKMVKLRKTPNTNDSSSNGNSSNNKRRSFYTASPLLSSGSIPKSASPVLPGVKRTASVRKPSSSSSKTNVTHNNDPSTSPTISVPPGVTRTVSSTHKKKGNSMVVHGAQS
Take B1: the stoichiometry N (commonly a count of units in the complex or per binding partner) in data set [1] was found to be 2 She3p per Myo4p; in “SEC-MALS” it was 2.
